Source: IntAct's records for PubMed 31515488

B1: Protein DBF4 homolog B (Homo sapiens), Q8NFT6 (parent)
chain: MSEPGKGDDCLELESSMAESRLRAPDLGVSRCLGKCQKNSPGARKHPFSGKSFYLDLPAGKNLQFLTGAIQQLGGVIEGFLSKEVSYIVSSRREVKAESSGKSHRGCPSPSPSEVRVETSAMVDPKGSHPRPSRKPVDSVPLSRGKELLQKAIRNQGSISGGGSGGSSSLLTNARSWGVRILHVDEMMMHVQQLSLASLCVKKQQPKKPEGTCPAAESRTRKVARLKAPFLKIEDESRKFRPFHHQFKSFPEISFLGPKDASPFEAPTTLGSMHHTRESKDGEPSPRSAAHTMPRRKKGYCECCQEAFEELHVHLQSAQHRSFALEAHLYAEVDRIIAQLSHSFADIPFQAGLPRWSGSPASDCDPLCPETLHPHQPSHPRAASPRIRKEDSCQASVTQGRAAGQQRWTESLDGVMGPPASHTCVSATTLLPALPKGSREQGCLCPCPASFTQSHLVTSLALLPGEWSPAEDMPLHPSQENSFAPADIPVKGPLLFPEARPWLMSARCWVRPFPFVTWGCLIPHDTTPLHEEVSPCPCLRLGYLYLLLTQSLWCRVRVPSLSTAGPIPRTSHPCTLAFPSYLNDHDLGHLCQAKPQGWNTPQPFLHCGFLAVDSG
B2: Endothelial transcription factor GATA-2 (Homo sapiens), P23769 (parent)
chain: MEVAPEQPRWMAHPAVLNAQHPDSHHPGLAHNYMEPAQLLPPDEVDVFFNHLDSQGNPYYANPAHARARVSYSPAHARLTGGQMCRPHLLHSPGLPWLDGGKAALSAAAAHHHNPWTVSPFSKTPLHPSAAGGPGGPLSVYPGAGGGSGGGSGSSVASLTPTAAHSGSHLFGFPPTPPKEVSPDPSTTGAASPASSSAGGSAARGEDKDGVKYQVSLTESMKMESGSPLRPGLATMGTQPATHHPIPTYPSYVPAAAHDYSSGLFHPGGFLGGPASSFTPKQRSKARSCSEGRECVNCGATATPLWRRDGTGHYLCNACGLYHKMNGQNRPLIKPKRRLSAARRAGTCCANCQTTTTTLWRRNANGDPVCNACGLYYKLHNVNRPLTMKKEGIQTRNRKMSNKSKKSKKGAECFEELSKCMQEKSSPFSAAALAGHMAPVGHLPPFSHSGHILPTPTPIHPSSSLSFGHPHPSSMVTAMG
B3: Lebercilin-like protein (Homo sapiens), O95447 (parent)
chain: MSLADLTKTNIDEHFFGVALENNRRSAACKRSPGTGDFSRNSNASNKSVDYSRSQCSCGSLSSQYDYSEDFLCDCSEKAINRNYLKQPVVKEKEKKKYNVSKISQSKGQKEISVEKKHTWNASLFNSQIHMIAQRRDAMAHRILSARLHKIKGLKNELADMHHKLEAILTENQFLKQLQLRHLKAIGKYENSQNNLPQIMAKHQNEVKNLRQLLRKSQEKERTLSRKLRETDSQLLKTKDILQALQKLSEDKNLAEREELTHKLSIITTKMDANDKKIQSLEKQLRLNCRAFSRQLAIETRKTLAAQTATKTLQVEVKHLQQKLKEKDRELEIKNIYSHRILKNLHDTEDYPKVSSTKSVQADRKILPFTSMRHQGTQKSDVPPLTTKGKKATGNIDHKEKSTEINHEIPHCVNKLPKQEDSKRKYEDLSGEEKHLEVQILLENTGRQKDKKEDQEKKNIFVKEEQELPPKIIEVIHPERESNQEDVLVREKFKRSMQRNGVDDTLGKGTAPYTKGPLRQRRHYSFTEATENLHHGLPASGGPANAGNMRYSHSTGKHLSNREEMELEHSDSGYEPSFGKSSRIKVKDTTFRDKKSSLMEELFGSGYVLKTDQSSPGVAKGSEEPLQSKESHPLPPSQASTSHAFGDSKVTVVNSIKPSSPTEGKRKIII
B4: Four and a half LIM domains protein 2 (Homo sapiens), Q14192 (parent)
chain: MTERFDCHHCNESLFGKKYILREESPYCVVCFETLFANTCEECGKPIGCDCKDLSYKDRHWHEACFHCSQCRNSLVDKPFAAKEDQLLCTDCYSNEYSSKCQECKKTIMPGTRKMEYKGSSWHETCFICHRCQQPIGTKSFIPKDNQNFCVPCYEKQHAMQCVQCKKPITTGGVTYREQPWHKECFVCTACRKQLSGQRFTARDDFAYCLNCFCDLYAKKCAGCTNPISGLGGTKYISFEERQWHNDCFNCKKCSLSLVGRGFLTERDDILCPDCGKDI
partner: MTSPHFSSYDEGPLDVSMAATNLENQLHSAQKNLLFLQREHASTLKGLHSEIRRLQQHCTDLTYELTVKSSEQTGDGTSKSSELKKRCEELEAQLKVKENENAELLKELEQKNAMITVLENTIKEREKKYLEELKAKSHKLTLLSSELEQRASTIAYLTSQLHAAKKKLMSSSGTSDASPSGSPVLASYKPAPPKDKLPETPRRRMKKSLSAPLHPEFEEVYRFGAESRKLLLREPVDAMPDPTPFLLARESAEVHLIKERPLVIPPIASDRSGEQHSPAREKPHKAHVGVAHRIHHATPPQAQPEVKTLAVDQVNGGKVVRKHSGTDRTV
B5: "N-acyl-aromatic-L-amino acid amidohydrolase (carboxylate-forming)" (Homo sapiens), Q96HD9 (parent)
chain: MCSLPVPREPLRRVAVTGGTHGNEMSGVYLARHWLHAPAELQRASFSAVPVLANPAATSGCRRYVDHDLNRTFTSSFLNSRPTPDDPYEVTRARELNQLLGPKASGQAFDFVLDLHNTTANMGTCLIAKSSHEVFAMHLCRHLQLQYPELSCQVFLYQRSGEESYNLDSVAKNGLGLELGPQPQGVLRADIFSRMRTLVATVLDFIELFNQGTAFPAFEMEAYRPVGVVDFPRTEAGHLAGTVHPQLQDRDFQPLQPGAPIFQMFSGEDLLYEGESTVYPVFINEAAYYEKGVAFVQTEKFTFTVPAMPALTPAPSPAS
partner: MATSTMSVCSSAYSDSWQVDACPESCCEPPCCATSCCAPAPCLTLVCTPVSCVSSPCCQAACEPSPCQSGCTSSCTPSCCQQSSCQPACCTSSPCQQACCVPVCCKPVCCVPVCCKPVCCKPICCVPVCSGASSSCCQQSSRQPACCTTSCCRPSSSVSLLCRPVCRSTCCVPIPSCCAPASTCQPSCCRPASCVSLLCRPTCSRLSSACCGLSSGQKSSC
B6: NADPH-dependent diflavin oxidoreductase 1 (Homo sapiens), Q9UHB4 (parent)
chain: MPSPQLLVLFGSQTGTAQDVSERLGREARRRRLGCRVQALDSYPVVNLINEPLVIFVCATTGQGDPPDNMKNFWRFIFRKNLPSTALCQMDFAVLGLGDSSYAKFNFVAKKLHRRLLQLGGSALLPVCLGDDQHELGPDAAVDPWLRDLWDRVLGLYPPPPGLTEIPPGVPLPSKFTLLFLQEAPSTGSEGQRVAHPGSQEPPSESKPFLAPMISNQRVTGPSHFQDVRLIEFDILGSGISFAAGDVVLIQPSNSAAHVQRFCQVLGLDPDQLFMLQPREPDVSSPTRLPQPCSMRHLVSHYLDIASVPRRSFFELLACLSLHELEREKLLEFSSAQGQEELFEYCNRPRRTILEVLCDFPHTAAAIPPDYLLDLIPVIRPRAFSIASSLLTHPSRLQILVAVVQFQTRLKEPRRGLCSSWLASLDPGQGPVRVPLWVRPGSLAFPETPDTPVIMVGPGTGVAPFRAAIQERVAQGQTGNFLFFGCRWRDQDFYWEAEWQELEKRDCLTLIPAFSREQEQKVYVQHRLRELGSLVWELLDRQGAYFYLAGNAKSMPADVSEALMSIFQEEGGLCSPDAAAYLARLQQTRRFQTETWA
partner: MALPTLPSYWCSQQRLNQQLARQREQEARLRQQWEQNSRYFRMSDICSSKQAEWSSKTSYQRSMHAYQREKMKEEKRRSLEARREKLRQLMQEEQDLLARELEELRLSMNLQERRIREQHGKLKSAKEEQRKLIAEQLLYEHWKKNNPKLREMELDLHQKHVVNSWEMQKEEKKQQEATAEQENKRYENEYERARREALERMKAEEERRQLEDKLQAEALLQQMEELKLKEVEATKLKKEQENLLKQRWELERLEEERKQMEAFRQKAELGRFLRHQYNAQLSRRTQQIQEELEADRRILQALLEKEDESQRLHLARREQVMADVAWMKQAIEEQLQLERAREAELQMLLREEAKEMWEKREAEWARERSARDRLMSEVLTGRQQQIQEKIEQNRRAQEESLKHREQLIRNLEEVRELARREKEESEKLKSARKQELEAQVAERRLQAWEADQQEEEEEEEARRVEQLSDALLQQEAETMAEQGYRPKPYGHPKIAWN
B7: Centrosomal protein of 55 kDa (Homo sapiens), Q53EZ4 (parent)
chain: MSSRSTKDLIKSKWGSKPSNSKSETTLEKLKGEIAHLKTSVDEITSGKGKLTDKERHRLLEKIRVLEAEKEKNAYQLTEKDKEIQRLRDQLKARYSTTTLLEQLEETTREGERREQVLKALSEEKDVLKQQLSAATSRIAELESKTNTLRLSQTVAPNCFNSSINNIHEMEIQLKDALEKNQQWLVYDQQREVYVKGLLAKIFELEKKTETAAHSLPQQTKKPESEGYLQEEKQKCYNDLLASAKKDLEVERQTITQLSFELSEFRRKYEETQKEVHNLNQLLYSQRRADVQHLEDDRHKTEKIQKLREENDIARGKLEEEKKRSEELLSQVQFLYTSLLKQQEEQTRVALLEQQMQACTLDFENEKLDRQHVQHQLHVILKELRKARNQITQLESLKQLHEFAITEPLVTFQGETENREKVAASPKSPTAALNESLVECPKCNIQYPATEHRDLLVHVEYCSK
partner: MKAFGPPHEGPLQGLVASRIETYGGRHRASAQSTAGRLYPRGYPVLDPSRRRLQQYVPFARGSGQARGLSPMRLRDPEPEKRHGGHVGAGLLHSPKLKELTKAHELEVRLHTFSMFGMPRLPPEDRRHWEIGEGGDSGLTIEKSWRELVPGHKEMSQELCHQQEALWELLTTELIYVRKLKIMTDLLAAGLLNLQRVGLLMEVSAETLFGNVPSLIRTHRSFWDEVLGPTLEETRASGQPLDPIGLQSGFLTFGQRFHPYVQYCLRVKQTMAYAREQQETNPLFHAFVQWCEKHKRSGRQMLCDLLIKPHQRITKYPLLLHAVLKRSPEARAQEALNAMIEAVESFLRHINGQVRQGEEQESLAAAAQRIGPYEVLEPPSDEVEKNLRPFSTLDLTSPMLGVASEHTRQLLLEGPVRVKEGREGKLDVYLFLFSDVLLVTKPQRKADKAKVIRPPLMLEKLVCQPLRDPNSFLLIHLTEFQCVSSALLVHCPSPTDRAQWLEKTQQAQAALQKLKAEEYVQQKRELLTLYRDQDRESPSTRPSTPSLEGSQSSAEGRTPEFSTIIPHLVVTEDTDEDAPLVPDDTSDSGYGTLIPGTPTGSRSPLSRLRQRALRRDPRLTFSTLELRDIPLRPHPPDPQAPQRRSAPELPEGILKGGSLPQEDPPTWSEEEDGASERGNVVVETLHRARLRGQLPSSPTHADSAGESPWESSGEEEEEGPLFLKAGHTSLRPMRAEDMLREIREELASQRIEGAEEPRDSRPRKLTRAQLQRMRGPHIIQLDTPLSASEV

Variants of: B1
Settings: with tri23_human TRIM23, P36406
Target sequence in this assay (P36406 whole entry): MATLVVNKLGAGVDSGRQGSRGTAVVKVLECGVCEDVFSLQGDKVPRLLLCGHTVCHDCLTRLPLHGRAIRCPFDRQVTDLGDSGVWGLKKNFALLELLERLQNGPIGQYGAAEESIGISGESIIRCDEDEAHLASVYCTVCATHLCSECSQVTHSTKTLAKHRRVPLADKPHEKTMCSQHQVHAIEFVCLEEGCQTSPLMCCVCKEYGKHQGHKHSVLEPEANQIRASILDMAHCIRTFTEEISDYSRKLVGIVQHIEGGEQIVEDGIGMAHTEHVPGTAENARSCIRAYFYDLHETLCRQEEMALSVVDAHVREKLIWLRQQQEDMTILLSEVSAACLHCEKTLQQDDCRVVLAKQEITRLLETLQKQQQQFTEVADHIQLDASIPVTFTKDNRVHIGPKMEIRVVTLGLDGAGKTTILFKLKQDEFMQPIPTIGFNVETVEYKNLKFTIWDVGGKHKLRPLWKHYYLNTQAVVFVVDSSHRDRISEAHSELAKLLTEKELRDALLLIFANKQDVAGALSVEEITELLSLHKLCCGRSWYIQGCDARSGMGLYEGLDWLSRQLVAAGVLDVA

effect of a mutation on the interaction	Variant
disrupting interaction strength	L199S

Variants of: B2
Settings: with fhl3_human FHL3, Q13643
fhl3_human FHL3, Q13643, sequence (Q13643 whole entry): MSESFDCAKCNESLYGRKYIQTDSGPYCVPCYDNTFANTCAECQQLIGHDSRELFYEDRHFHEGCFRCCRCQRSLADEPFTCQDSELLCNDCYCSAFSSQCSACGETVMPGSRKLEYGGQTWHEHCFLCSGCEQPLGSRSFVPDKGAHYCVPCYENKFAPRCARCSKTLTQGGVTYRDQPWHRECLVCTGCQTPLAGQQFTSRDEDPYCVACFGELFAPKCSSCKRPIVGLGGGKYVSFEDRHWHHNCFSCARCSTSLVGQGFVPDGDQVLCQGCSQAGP

effect of a mutation on the interaction	Variant
with no effect	A164T

Variants of: B2
Settings: with psa3_human PSMA3, P25788
psa3_human PSMA3, P25788, sequence (P25788 whole entry): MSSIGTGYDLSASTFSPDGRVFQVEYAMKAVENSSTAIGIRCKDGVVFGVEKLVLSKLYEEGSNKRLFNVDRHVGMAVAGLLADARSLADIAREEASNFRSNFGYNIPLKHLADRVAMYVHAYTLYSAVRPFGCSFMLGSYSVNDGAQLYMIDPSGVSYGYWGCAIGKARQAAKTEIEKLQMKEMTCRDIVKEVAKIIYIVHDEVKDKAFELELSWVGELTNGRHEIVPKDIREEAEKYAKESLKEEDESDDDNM

effect of a mutation on the interaction	Variant
with no effect	A164T

Variants of: B2
Settings: with tri23_human TRIM23, P36406
Target sequence in this assay (P36406 whole entry): as the sequence (P36406 whole entry) above

effect of a mutation on the interaction	Variant
with no effect	A164T

Variants of: B2
Settings: with mdfi_human MDFI

effect of a mutation on the interaction	Variant
with no effect	A164T

Variants of: B3
Settings: with tfp11_human TFIP11, Q9UBB9
tfp11_human TFIP11, Q9UBB9, sequence (Q9UBB9 whole entry): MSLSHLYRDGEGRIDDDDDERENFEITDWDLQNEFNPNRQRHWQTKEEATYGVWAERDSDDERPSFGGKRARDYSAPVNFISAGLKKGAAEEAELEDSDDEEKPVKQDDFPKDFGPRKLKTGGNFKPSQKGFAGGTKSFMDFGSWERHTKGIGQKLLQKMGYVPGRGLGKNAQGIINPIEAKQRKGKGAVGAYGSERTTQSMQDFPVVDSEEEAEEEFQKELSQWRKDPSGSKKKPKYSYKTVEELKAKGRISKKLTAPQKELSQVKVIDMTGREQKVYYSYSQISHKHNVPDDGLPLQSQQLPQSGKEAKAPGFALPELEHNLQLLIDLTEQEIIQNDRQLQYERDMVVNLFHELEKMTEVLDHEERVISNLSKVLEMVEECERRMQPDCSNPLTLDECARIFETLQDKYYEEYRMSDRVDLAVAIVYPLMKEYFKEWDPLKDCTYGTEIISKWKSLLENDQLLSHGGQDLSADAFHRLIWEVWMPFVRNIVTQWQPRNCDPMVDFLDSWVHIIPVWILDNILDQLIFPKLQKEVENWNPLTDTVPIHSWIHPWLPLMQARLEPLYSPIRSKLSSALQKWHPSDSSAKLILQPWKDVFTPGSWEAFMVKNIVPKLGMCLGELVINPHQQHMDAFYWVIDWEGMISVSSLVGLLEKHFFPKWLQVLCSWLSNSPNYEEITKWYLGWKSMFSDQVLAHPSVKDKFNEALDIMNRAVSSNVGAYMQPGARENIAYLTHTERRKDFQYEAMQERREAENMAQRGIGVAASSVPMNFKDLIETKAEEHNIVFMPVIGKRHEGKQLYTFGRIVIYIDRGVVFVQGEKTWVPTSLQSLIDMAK

effect of a mutation on the interaction	Variant
with no effect	G17S

Variants of: B3
Settings: with tpm3_human TPM3, P06753
tpm3_human TPM3, P06753, sequence (P06753 whole entry): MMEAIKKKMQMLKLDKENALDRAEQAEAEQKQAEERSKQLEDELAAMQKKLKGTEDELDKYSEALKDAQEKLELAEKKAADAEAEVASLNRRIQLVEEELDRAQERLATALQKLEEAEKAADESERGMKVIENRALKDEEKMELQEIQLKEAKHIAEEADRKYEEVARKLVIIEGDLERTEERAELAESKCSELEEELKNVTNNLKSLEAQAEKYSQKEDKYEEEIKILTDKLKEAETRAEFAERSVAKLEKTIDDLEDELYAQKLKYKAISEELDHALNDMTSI

effect of a mutation on the interaction	Variant
with no effect	G17S

Variants of: B4
Settings: with ccd92_human CCDC92, Q53HC0

effect of a mutation on the interaction	Variant
with no effect	N95K
with no effect	A37S

Variants of: B5
Settings: with kr103_human KRTAP10-3, P60369

effect of a mutation on the interaction	Variant
with no effect	R8Q

Variants of: B6
Settings: with tchp_human TCHP

effect of a mutation on the interaction	Variant
disrupting interaction strength	P281L

Variants of: B7
Settings: with pkhg6_human PLEKHG6, Q3KR16

effect of a mutation on the interaction	Variant
with no effect	L59F
